Laboratory results taken from patent US20220119534A1 (DRAGONFLY THERAPEUTICS, published 2022).

Legend:
[1] = target: T1, recombinant human FcRn (human, UniProt P55899 24-297; P61769 21-119); test: SPR 25C, pH 6.0, steady state; pH 6.0; fourth replicate
T1 construct: also called hFcRn

[2] = target: T2, recombinant human CLEC12A-His (human, UniProt Q5QGZ9 65-265); test: SPR 37C, average
T2 construct: also called hCLEC12A-His; hCLEC12A
T2 sequence: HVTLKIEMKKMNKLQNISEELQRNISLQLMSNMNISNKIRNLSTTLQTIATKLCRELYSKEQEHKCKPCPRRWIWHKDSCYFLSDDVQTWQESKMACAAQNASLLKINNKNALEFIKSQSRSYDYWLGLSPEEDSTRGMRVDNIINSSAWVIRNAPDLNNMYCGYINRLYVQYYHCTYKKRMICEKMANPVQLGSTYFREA

[3] = target: T3, recombinant human CD32a R131 (human, UniProt P12318 36-218, limits assumed, biotinylated); test: SPR 25C, steady state, average
T3 construct: also called FcγRIIa R131
T3 sequence (looked up): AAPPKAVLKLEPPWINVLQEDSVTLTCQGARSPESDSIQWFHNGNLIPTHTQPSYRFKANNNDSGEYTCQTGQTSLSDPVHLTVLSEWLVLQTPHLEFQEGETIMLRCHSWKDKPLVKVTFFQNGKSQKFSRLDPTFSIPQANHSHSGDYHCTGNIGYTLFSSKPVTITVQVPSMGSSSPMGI

[4] = target: T4, Human CLEC12A-His (human, UniProt Q5QGZ9 65-265); test: SPR; control sample (low pH hold study)
T4 construct: Recombinant soluble protein made in house; also called hCLEC12A-His; hCLEC12A; not shown: His tag
T4 sequence: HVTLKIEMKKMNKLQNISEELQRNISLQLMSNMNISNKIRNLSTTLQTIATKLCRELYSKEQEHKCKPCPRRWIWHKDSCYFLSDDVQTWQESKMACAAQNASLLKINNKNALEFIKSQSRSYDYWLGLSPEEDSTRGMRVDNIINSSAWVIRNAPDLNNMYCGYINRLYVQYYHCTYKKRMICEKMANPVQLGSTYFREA

[5] = target: T5, Human CD16a V158 (human, UniProt P08637 17-208, biotinylated); test: SPR; control sample (low pH hold study)
T5 construct: Bought recombinant receptor; also called hCD16a (V158); hFcγRIIIa V158

[6] = target: T6, mFc-hNKG2D (human, UniProt P26718 73-216); test: SPR; control sample (low pH hold study)
T6 construct: extracellular domain; Recombinant mFc-tagged NKG2D dimer, made in house; also called human NKG2D; not shown: mouse Fc tag
T6 sequence (looked up): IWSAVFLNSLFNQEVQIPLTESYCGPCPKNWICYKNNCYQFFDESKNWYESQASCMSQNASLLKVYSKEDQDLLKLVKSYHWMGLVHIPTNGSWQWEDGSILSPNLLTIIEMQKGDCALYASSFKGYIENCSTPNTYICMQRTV

[7] = target: T7, human CLEC12A on cells (HL60, PL21, Ba/F3-hCLEC12A) (human, UniProt Q5QGZ9 1-265); test: flow cytometry, PL21 cells
T7 construct: Endogenous on the AML lines HL60 and PL21; brought into mouse Ba/F3 cells by retroviral transduction; The cell line stands under assay; also called CLL-1
T7 sequence: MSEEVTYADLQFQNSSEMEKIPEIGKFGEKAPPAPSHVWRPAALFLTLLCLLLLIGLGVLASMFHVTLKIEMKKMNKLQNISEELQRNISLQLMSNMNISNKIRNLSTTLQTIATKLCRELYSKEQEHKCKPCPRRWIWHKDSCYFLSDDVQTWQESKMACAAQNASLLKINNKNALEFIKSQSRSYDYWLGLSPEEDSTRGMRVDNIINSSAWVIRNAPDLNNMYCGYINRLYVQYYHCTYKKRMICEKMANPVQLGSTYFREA

[8] = target: T4, Human CLEC12A-His; test: SPR, hCLEC12A (K244) WT
[9] = target: T6, mFc-hNKG2D; test: SPR, 37 C, mFc-hNKG2D captured, steady state fit; average

T5 sequence (P08637 17-208 F176V limits assumed): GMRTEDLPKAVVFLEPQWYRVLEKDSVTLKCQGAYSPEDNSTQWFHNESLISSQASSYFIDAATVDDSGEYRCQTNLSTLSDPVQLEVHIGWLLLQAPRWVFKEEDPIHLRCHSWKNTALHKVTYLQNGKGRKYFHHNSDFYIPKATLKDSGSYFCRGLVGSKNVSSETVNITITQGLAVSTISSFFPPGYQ
T1 sequence (P55899 24-297 limits assumed, chain 1 of 2): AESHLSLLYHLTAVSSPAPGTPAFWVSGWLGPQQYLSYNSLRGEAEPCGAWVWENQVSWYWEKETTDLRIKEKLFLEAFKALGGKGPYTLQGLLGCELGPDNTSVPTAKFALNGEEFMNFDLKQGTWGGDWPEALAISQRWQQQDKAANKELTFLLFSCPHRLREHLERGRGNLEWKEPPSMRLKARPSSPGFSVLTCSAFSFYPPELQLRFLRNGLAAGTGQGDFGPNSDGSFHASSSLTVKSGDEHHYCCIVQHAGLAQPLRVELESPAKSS
T1 sequence (P61769 21-119 limits assumed, chain 2 of 2): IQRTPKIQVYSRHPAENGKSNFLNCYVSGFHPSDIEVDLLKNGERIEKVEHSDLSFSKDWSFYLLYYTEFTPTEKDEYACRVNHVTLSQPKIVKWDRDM

B1: F3'-1602 TriNKET (other)
chain: QLQLQESGPGLVKPSETLSLTCTVSGFSLTNYGLHWIRQPPGKCLEWIGVIWSGGKTDYNPSLKSRVTISKDTSKNQFSLKLSSVQAADTAVYYCAKYDYDDSLDYWGQGTLVTVSSGGGGSGGGGSGGGGSGGGGSDIQMTQSPSSLSASVGDRVTITCHASQNINFWLSWYQQKPGKAPKLLIYEASNLHTGVPSRFSGSGSGTRFTLTISSLQPEDIATYYCQQSHSYPLTFGCGTKLEIKGSDKTHTCPPCPAPELLGGPSVFLFPPKPKDTLMISRTPEVTCVVVDVSHEDPEVKFNWYVDGVEVHNAKTKPREEQYNSTYRVVSVLTVLHQDWLNGKEYKCKVSNKALPAPIEKTISKAKGQPREPRVYTLPPCRDELTKNQVSLTCLVKGFYPSDIAVEWESNGQPENNYKTTPPVLVSDGSFTLYSKLTVDKSRWQQGNVFSCSVMHEALHNHYTQKSLSLSPG
heavy: EVQLVESGGGLVKPGGSLRLSCAASGFTFSSYSMNWVRQAPGKGLEWVSSISSSSSYIYYADSVKGRFTISRDNAKNSLYLQMNSLRAEDTAVYYCARGAPIGAAAGWFDPWGQGTLVTVSSASTKGPSVFPLAPSSKSTSGGTAALGCLVKDYFPEPVTVSWNSGALTSGVHTFPAVLQSSGLYSLSSVVTVPSSSLGTQTYICNVNHKPSNTKVDKKVEPKSCDKTHTCPPCPAPELLGGPSVFLFPPKPKDTLMISRTPEVTCVVVDVSHEDPEVKFNWYVDGVEVHNAKTKPREEQYNSTYRVVSVLTVLHQDWLNGKEYKCKVSNKALPAPIEKTISKAKGQPREPQVCTLPPSRDELTENQVSLTCLVKGFYPSDIAVEWESNGQPENNYKTTPPVLDSDGSFFLYSWLTVDKSRWQQGNVFSCSVMHEALHNHYTQKSLSLSPG
light: DIQMTQSPSSVSASVGDRVTITCRASQGISSWLAWYQQKPGKAPKLLIYAASSLQSGVPSRFSGSGSGTDFTLTISSLQPEDFATYYCQQGVSFPRTFGGGTKVEIKRTVAAPSVFIFPPSDEQLKSGTASVVCLLNNFYPREAKVQWKVDNALQSGNSQESVTEQDSKDSTYSLSSTLTLSKADYEKHKVYACEVTHQGLSSPVTKSFNRGEC
notes: CLEC12A scFv-Fc, NKG2D A49MI Fab-Fc, human IgG1 Fc; also called AB0237
- Kd [1]: 1600 nM
- Kd [2]: 0.59 nM
- koff [2]: 0.000494 s⁻¹
- kon [2]: 844000 M⁻¹ s⁻¹
- Kd [3]: 1400 nM

B2: AB0192 TriNKET (other)
chain: EVQLVESGGGVVQPGGSLRLSCAASGFTFNAFGMHWVRQAPGKCLEWVAFISSGSTSIYYANTVKGRFTISRDNSKNTLYLQMNSLRAEDTAVYYCARDGYPTGGAMDYWGQGTSVTVSSGGGGSGGGGSGGGGSGGGGSDIQMTQSPSSLSASVGDRVTITCKASQDIYNYLSWFQQKPGKAPKPLIYRANILVSGVPSRFSGSGSGQDYTFTISSLQPEDIATYYCLQFDAFPFTFGCGTKLEIKGSDKTHTCPPCPAPELLGGPSVFLFPPKPKDTLMISRTPEVTCVVVDVSHEDPEVKFNWYVDGVEVHNAKTKPREEQYNSTYRVVSVLTVLHQDWLNGKEYKCKVSNKALPAPIEKTISKAKGQPREPRVYTLPPCRDELTKNQVSLTCLVKGFYPSDIAVEWESNGQPENNYKTTPPVLVSDGSFTLYSKLTVDKSRWQQGNVFSCSVMHEALHNHYTQKSLSLSPG
heavy: EVQLVESGGGLVKPGGSLRLSCAASGFTFSSYSMNWVRQAPGKGLEWVSSISSSSSYIYYADSVKGRFTISRDNAKNSLYLQMNSLRAEDTAVYYCARGAPIGAAAGWFDPWGQGTLVTVSSASTKGPSVFPLAPSSKSTSGGTAALGCLVKDYFPEPVTVSWNSGALTSGVHTFPAVLQSSGLYSLSSVVTVPSSSLGTQTYICNVNHKPSNTKVDKKVEPKSCDKTHTCPPCPAPELLGGPSVFLFPPKPKDTLMISRTPEVTCVVVDVSHEDPEVKFNWYVDGVEVHNAKTKPREEQYNSTYRVVSVLTVLHQDWLNGKEYKCKVSNKALPAPIEKTISKAKGQPREPQVCTLPPSRDELTENQVSLTCLVKGFYPSDIAVEWESNGQPENNYKTTPPVLDSDGSFFLYSWLTVDKSRWQQGNVFSCSVMHEALHNHYTQKSLSLSPG
light: DIQMTQSPSSVSASVGDRVTITCRASQGISSWLAWYQQKPGKAPKLLIYAASSLQSGVPSRFSGSGSGTDFTLTISSLQPEDFATYYCQQGVSFPRTFGGGTKVEIKRTVAAPSVFIFPPSDEQLKSGTASVVCLLNNFYPREAKVQWKVDNALQSGNSQESVTEQDSKDSTYSLSSTLTLSKADYEKHKVYACEVTHQGLSSPVTKSFNRGEC
notes: the condition stands under assay; also called AB0192 Lot AB0192-005
- Kd [4]: 1.83 nM
- koff [4]: 0.00125 s⁻¹
- kon [4]: 685000 M⁻¹ s⁻¹
- Kd [5]: 178 nM
- koff [5]: 0.0199 s⁻¹
- kon [5]: 112000 M⁻¹ s⁻¹
- Kd [6]: 779 nM
- koff [6]: 0.146 s⁻¹
- kon [6]: 188000 M⁻¹ s⁻¹
- EC50 [7]: 0.37 nM
- FOB (fold over background) [7]: 12 fold
- Kd [8]: 1.65 nM
- koff [8]: 0.00115 s⁻¹
- kon [8]: 698000 M⁻¹ s⁻¹
- Kd [9]: 781 nM
